Reference: publication PMC10349056, “The combined action of the intracellular regions regulates FGFR2 kinase activity” (Communications Biology, 2023)
One block for each molecule: values may come before it. Where no end group is shown, it is not given here.

Assays:
[1] = biological target: FGFR2^C3 tagged with GFP or RFP; assay: FRET or BRET; FLIM of GFP- and RFP-tagged FGFR2 co-expressed in serum-starved HEK293T cells, fixed
[2] = biological target: FGFR2 juxtamembrane region (407-462), labelled with Atto 488 (UniProt P21802); assay: MST; JM labelled with Atto 488, serial dilutions of KD titrated, 25 °C; 20 mM HEPES, 150 mM NaCl, 1 mM TCEP, 0.01% Tween 20, pH 7.5; the text calls the constant of KD^pY1 apparent (Kd,app)
[3] = biological target: KD^pY1 (mono-phosphorylated FGFR2IIIb kinase domain) (UniProt P21802); assay: MST; Atto488-labeled protein titrated with the same unlabeled protein, 25 °C; apparent dimerization constant, dimer to monomers
[4] = biological target: CT^C1 (C-terminal tail of FGFR2IIIb C1 isoform, GST cleaved) (UniProt P21802); assay: MST; CT^C1 labeled with Atto488, titrated with unlabeled JM-KD^pY1 or KD^pY1, 25 °C
[5] = biological target: JM (juxtamembrane region of FGFR2IIIb, as used in MST and NMR); assay: MST; JM labeled with Atto 488, serial dilutions of KD titrated, 25 °C, 20 mM HEPES, 150 mM NaCl, 1 mM TCEP, 0.01% Tween 20, pH 7.5; apparent
[6] = biological target: FGFR2^C2 tagged with GFP or RFP; assay: FRET or BRET; FLIM of GFP- and RFP-tagged FGFR2 co-expressed in serum-starved HEK293T cells, fixed
[7] = biological target: FGFR2 C-terminal tail of the C1 isoform, untagged (the last 58 residues of FGFR2) (UniProt P21802); assay: SPR; untagged CT immobilised on a CM4 chip by amine coupling (about 200 RU); JM-KD proteins of different phosphorylation level injected at 30 µl/min, then buffer wash; steady-state fitting
[8] = biological target: JM-KD^pY1 (mono-phosphorylated juxtamembrane region plus kinase domain) (UniProt P21802); assay: MST; Atto488-labeled protein titrated with the same unlabeled protein, 25 °C; apparent dimerization constant, dimer to monomers
[9] = biological target: JM-KD^pY1 (mono-phosphorylated juxtamembrane region plus kinase domain) (UniProt P21802); assay: SPR; apparent dimerization constant of JM-KD^pY1 (Supplementary Fig. 2c)
[10] = biological target: CT^C1 (C-terminal tail of FGFR2IIIb C1 isoform, GST cleaved) (UniProt P21802); assay: SPR; BIAcore T100, CT^C1 immobilised on CM4 chip by amine coupling to about 200 RU, analytes at 30 µl/min
[11] = biological target: T1, FGFR2 kinase domain, mono-phosphorylated on Y657 (UniProt P21802-3 465-764, Y467F (worked out from the printed order of phosphorylation) | Y587F (worked …, phosphotyrosine at 657)); assay: MST; synthetic JM or CT peptides in serial dilution against KD^pY1, 25 °C; 20 mM HEPES, 150 mM NaCl, 1 mM TCEP, 0.01% Tween 20, pH 7.5; conditions: both partners purified
T1 construct: FGFR2 (IIIb isoform) kinase domain, residues 465-764; numbers count on: FGFR2IIIb (C1 isoform, 822 residues); also called KD^pY1; source: E. coli BL21(DE3), purified (Talon, Superdex 75)

[12] = biological target: T2, FGFR2 C-terminal tail of the C1 isoform, untagged, labelled with Atto 488 (UniProt P21802-3 765-822, Atto 488 dye label); assay: MST; CT labelled with Atto 488 (100 nM), 2-fold serial dilutions of JM peptides, 25 °C; 20 mM HEPES, 150 mM NaCl, 1 mM TCEP, 0.01% Tween 20, pH 7.5; conditions: both partners purified
T2 construct: FGFR2 (IIIb, C1 isoform) C-terminal tail, the last 58 residues of FGFR2; numbers count on: FGFR2IIIb (C1 isoform, 822 residues); also called CT^C1; source: E. coli BL21(DE3), purified as GST fusion, GST removed with thrombin
T2 sequence (looked up): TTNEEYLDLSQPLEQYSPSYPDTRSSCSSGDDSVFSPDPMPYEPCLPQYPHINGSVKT

[13] = biological target: T3, FGFR2 juxtamembrane region (407-462), labelled with Atto 488 (UniProt P21802-3 407-462, Atto 488 dye label); assay: MST; JM labelled with Atto488 (100 nM), 2-fold serial dilutions of CT peptides, 25 °C; 20 mM HEPES, 150 mM NaCl, 1 mM TCEP, 0.01% Tween 20, pH 7.5; conditions: both partners purified
T3 construct: FGFR2 (IIIb isoform) juxtamembrane region, residues 407-462; numbers count on: FGFR2IIIb (C1 isoform, 822 residues); also called JM; 407Juxtamembrane region462; source: synthetic peptide, bought: Genscript
T3 sequence (looked up): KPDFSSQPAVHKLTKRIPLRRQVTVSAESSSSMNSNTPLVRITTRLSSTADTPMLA

[14] = biological target: KD^pY1 (mono-phosphorylated FGFR2IIIb kinase domain) (UniProt P21802); assay: MST; peptide fragments of CT against KD^pY1 (Supplementary Table 4, Supplementary Fig. 3a)
[15] = biological target: T1, FGFR2 kinase domain, …; assay: MST; synthetic JM or CT peptides in serial dilution against KD^pY1, 25 °C; 20 mM HEPES, 150 mM NaCl, 1 mM TCEP, 0.01% Tween 20, pH 7.5; conditions: both partners purified; remark: listed apart in the source
[16] = biological target: JM (juxtamembrane region of FGFR2IIIb, as used in MST and NMR); assay: MST; JM labeled with Atto 488, two-fold serial dilution of CT titrated
[17] = biological target: T4, FGFR2 JM-KD, phosphorylation state pY4 (UniProt P21802-3 414-764, Y658F (worked out from the printed order of phosphorylation) | Y734F (worked …, phosphotyrosine at 657, 587, 467 and 589)); assay: SPR; untagged CT immobilised on a CM4 chip by amine coupling (about 200 RU); JM-KD proteins of different phosphorylation level injected at 30 µl/min, then buffer wash; steady-state fitting; conditions: both partners purified
T4 construct: numbers count on: FGFR2IIIb (C1 isoform, 822 residues); also called JM-KD^pY4; source: E. coli BL21(DE3), purified (Talon, Superdex 75)

[18] = biological target: T5, FGFR2 JM-KD, phosphorylation state pY2 (UniProt P21802-3 414-764, Y467F (worked out from the printed order of phosphorylation) | Y589F (worked …, phosphotyrosine at 657 and 587)); assay: as above; conditions: both partners purified
T5 construct: numbers count on: FGFR2IIIb (C1 isoform, 822 residues); also called JM-KD^pY2; source: E. coli BL21(DE3), purified (Talon, Superdex 75)

FGFR2 JM-KD Y657/658F = biological target: T6, FGFR2 JM-KD Y657/658F (UniProt P21802-3 414-764, Y657/658F | Y657/658F); assay: as above; conditions: both partners purified
T6 construct: numbers count on: FGFR2IIIb (C1 isoform, 822 residues); source: E. coli BL21(DE3), purified (Talon, Superdex 75)

[19] = biological target: T7, FGFR2 JM-KD wild type, phosphorylated (UniProt P21802-3 414-764, phosphotyrosines (phosphorylated wild type; sites not listed)); assay: as above; conditions: both partners purified
T7 construct: numbers count on: FGFR2IIIb (C1 isoform, 822 residues); also called JM-KD^pWT; JM-KD^pYWT; source: E. coli BL21(DE3), purified (Talon, Superdex 75)

[20] = biological target: T8, FGFR2 JM-KD, phosphorylation state pY3 (UniProt P21802-3 414-764, Y589F (worked out from the printed order of phosphorylation) | Y658F (worked …, phosphotyrosine at 657, 587 and 467)); assay: as above; conditions: both partners purified
T8 construct: numbers count on: FGFR2IIIb (C1 isoform, 822 residues); also called JM-KD^pY3; source: E. coli BL21(DE3), purified (Talon, Superdex 75)

[21] = biological target: T9, FGFR2 JM-KD, phosphorylation state pY5 (UniProt P21802-3 414-764, Y734F (worked out from the printed order of phosphorylation), phosphotyrosine at 657, 587, 467, 589 and 658); assay: as above; conditions: both partners purified
T9 construct: numbers count on: FGFR2IIIb (C1 isoform, 822 residues); also called JM-KD^pY5; source: E. coli BL21(DE3), purified (Talon, Superdex 75)
T9 sequence (P21802 413-763 Y733F): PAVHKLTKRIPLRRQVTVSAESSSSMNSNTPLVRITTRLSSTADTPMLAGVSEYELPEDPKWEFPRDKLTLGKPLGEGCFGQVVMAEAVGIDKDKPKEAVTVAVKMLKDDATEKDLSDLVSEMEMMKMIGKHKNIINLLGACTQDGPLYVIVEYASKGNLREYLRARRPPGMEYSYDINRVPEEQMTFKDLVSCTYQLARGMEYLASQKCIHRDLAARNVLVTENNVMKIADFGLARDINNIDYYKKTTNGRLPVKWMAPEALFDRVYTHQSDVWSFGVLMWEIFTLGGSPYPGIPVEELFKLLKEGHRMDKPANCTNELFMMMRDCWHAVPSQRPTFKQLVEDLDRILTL

T1 sequence (P21802 464-763 Y466F/Y586F/Y588F/Y657F/Y733F): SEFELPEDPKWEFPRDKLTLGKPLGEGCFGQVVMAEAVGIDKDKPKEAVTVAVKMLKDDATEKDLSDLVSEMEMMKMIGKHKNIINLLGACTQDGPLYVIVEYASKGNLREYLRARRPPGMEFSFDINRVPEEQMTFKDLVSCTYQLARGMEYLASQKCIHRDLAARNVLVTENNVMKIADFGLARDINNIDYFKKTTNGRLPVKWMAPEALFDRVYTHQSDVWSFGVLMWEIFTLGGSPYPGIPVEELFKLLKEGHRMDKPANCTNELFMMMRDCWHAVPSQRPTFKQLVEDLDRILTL
T4 sequence (P21802 413-763 Y657F/Y733F): as the sequence (P21802 413-763 Y733F) above, with Y245F counted along it
T7 sequence (P21802 413-763): as the sequence (P21802 413-763 Y733F) above, with F321Y counted along it
T6 sequence (P21802 other isoform, or with tags, fused parts or gaps Y657/658F | Y657/658F | Y657/658F | Y657/658F): as the sequence (P21802 413-763 Y733F) above, with Y244F, Y245F, F321Y counted along it
T5 sequence (P21802 413-763 Y466F/Y588F/Y657F/Y733F): as the sequence (P21802 413-763 Y733F) above, with Y54F, Y176F, Y245F counted along it
T8 sequence (P21802 413-763 Y588F/Y657F/Y733F): as the sequence (P21802 413-763 Y733F) above, with Y176F, Y245F counted along it

Molecule: FGFR2^C3 tagged with GFP or RFP (receptor)
percent of molecules showing interaction [1]: 26%

Molecule: FGFR2 kinase domain, phosphorylation state pY6 (from UniProt P21802-3 465-764) (domain or fragment)
Kd [2]: 20.5 µM

Molecule: FGFR2^C2 tagged with GFP or RFP (receptor)
percent of molecules showing dimerization above the control threshold [6]: 16%

Molecule: FGFR2 JM-KD, phosphorylation state pY6 (from UniProt P21802-3 414-764) (domain or fragment)
Kd [7]: 4.63 µM

B1: CT peptide 815-822 (peptide)
peptide: HINGSVKT
notes: FGFR2 (IIIb, C1 isoform) C-terminal tail, residues 815-822; numbers count on: FGFR2IIIb (C1 isoform, 822 residues); also called CT^815-822; source: synthetic peptide, bought: Genscript
Kd [11]: 426 ± 42.5 µM

B3: CT peptide 808-815 (peptide)
peptide: PCLPQYPH
notes: FGFR2 (IIIb, C1 isoform) C-terminal tail, residues 808-815; numbers count on: FGFR2IIIb (C1 isoform, 822 residues); also called CT^808-815; source: synthetic peptide, bought: Genscript
Kd [11]: 291 ± 21.4 µM
Kd [13]: 56.6 ± 5.5 µM

B4: CT peptide 801-815 (peptide)
peptide: PDPMPYEPCLPQYPH
notes: numbers count on: FGFR2IIIb (C1 isoform, 822 residues); source: synthetic peptide, bought: Genscript
Kd [11]: 25.8 ± 5.4 µM
Kd [13]: 63.6 ± 6.5 µM
Kd [14]: 25.9 µM

B5: CT peptide 808-822 (peptide)
peptide: PCLPQYPHINGSVKT
notes: FGFR2 (IIIb, C1 isoform) C-terminal tail, residues 808-822; numbers count on: FGFR2IIIb (C1 isoform, 822 residues); also called CT^808-822; source: synthetic peptide, bought: Genscript
Kd [11]: 257 ± 39.2 µM

B7: CT peptide 808-819 (peptide)
peptide: PCLPQYPHINGS
notes: numbers count on: FGFR2IIIb (C1 isoform, 822 residues); also called 808PCLPQYPHINGS819; source: synthetic peptide, bought: Genscript
Kd [11]: 255 ± 37.9 µM

B8: CT^C1 (C-terminal tail of FGFR2IIIb C1 isoform, GST cleaved) (domain or fragment)
chain: T2 sequence (looked up)
modifications: cysteine pairing not given here; also: Atto488 label (MST), place not given here, 15N-labeled (NMR)
Kd [16]: 20.2 µM

B9: FGFR2 C-terminal tail of the C1 isoform, untagged (the last 58 residues of FGFR2) (domain or fragment, UniProt P21802-3 765-822, looked up)
chain: T2 sequence (looked up)
notes: FGFR2 (IIIb, C1 isoform) C-terminal tail, the last 58 residues of FGFR2; numbers count on: FGFR2IIIb (C1 isoform, 822 residues); Unlabelled form: immobilised by amine coupling in SPR; added as 'CT' in the steady-state FRET; also called CT^C1; source: E. coli BL21(DE3), purified as GST fusion, GST removed with thrombin
Kd [17]: 7.87 µM
Kd [18]: 4.08 µM
Kd (FGFR2 JM-KD Y657/658F): 5.68 µM
Kd [19]: 2.31 µM
Kd [20]: 3.27 µM
Kd [21]: 1.6 µM

B12: JM peptide 407-420 (peptide)
peptide: KPDFSSQPAVHKLT
notes: FGFR2 (IIIb isoform) juxtamembrane region, residues 407-420; numbers count on: FGFR2IIIb (C1 isoform, 822 residues); source: synthetic peptide, bought: Genscript
Kd [12]: 200 ± 13.7 µM
Kd [15]: 105 ± 7.37 µM

The remaining lines, values ahead:

Kd [3]: 0.112 µM
Kd [4]: 3.75 µM
Kd [5]: 2.51 µM
Molecule: KD^pY1 (mono-phosphorylated FGFR2IIIb kinase domain) (from UniProt P21802-3 465-764) (domain or fragment)

Kd [8]: 3.46 µM
Kd [4]: 0.304 µM
Kd [9]: 3.07 µM
Kd [10]: 0.16 µM
Molecule: JM-KD^pY1 (mono-phosphorylated juxtamembrane region plus kinase domain) (from UniProt P21802-3 414-764) (domain or fragment)

Kd [12]: 372 ± 30.3 µM
B2: JM peptide 439-452 (peptide)
peptide: MNSNTPLVRITTRL
notes: FGFR2 (IIIb isoform) juxtamembrane region, residues 439-452; numbers count on: FGFR2IIIb (C1 isoform, 822 residues); source: synthetic peptide, bought: Genscript

Kd [15]: 36.8 ± 6.23 µM
B6: JM peptide 414-430 (peptide)
peptide: PAVHKLTKRIPLRRQVT
notes: as for B4

Kd [12]: 3.23 ± 0.326 µM
B10: JM peptide 429-442 (peptide)
peptide: VTVSAESSSSMNSN
notes: as for B4

Kd [12]: 25.4 ± 3.26 µM
B11: JM peptide 449-462 (peptide)
peptide: TTRLSSTADTPMLA
notes: as for B4
